Earlier results on three substances are cited in publication PMC4740388.

pKd: −log10 of the molar value. Where “and” joins values, the source holds several entries; their conditions need not be identical. Equal entries are not always repeated. Where two headings read alike, the source gives them in different places.

For data set [1], the target named is VEGFR2 ectodomain (Homo sapiens) (UniProt P35968).
For data set [2], the target named is VEGFR1 ectodomain (Homo sapiens) (UniProt P17948).
In data set [3] the target is Nucleolin (Homo sapiens) (UniProt P19338).
Data set [4] concerns the target Integrin α5β1 (Homo sapiens) (UniProt P08648).
Data set [5] addresses Integrin αvβ3 (Homo sapiens) (UniProt P06756).
Data set [6] has the same target. The source holds these as a separate data set.

Endostatin endostatin, sequence (P39060 1569-1754): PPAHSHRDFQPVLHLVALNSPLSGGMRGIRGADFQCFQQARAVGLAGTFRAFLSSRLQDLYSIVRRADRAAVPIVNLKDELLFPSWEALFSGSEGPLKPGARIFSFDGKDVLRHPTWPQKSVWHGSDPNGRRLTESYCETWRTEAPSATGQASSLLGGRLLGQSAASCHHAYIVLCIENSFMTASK
Integrin αvβ3 (Homo sapiens), sequence (P06756 31-992, chain 1 of 2): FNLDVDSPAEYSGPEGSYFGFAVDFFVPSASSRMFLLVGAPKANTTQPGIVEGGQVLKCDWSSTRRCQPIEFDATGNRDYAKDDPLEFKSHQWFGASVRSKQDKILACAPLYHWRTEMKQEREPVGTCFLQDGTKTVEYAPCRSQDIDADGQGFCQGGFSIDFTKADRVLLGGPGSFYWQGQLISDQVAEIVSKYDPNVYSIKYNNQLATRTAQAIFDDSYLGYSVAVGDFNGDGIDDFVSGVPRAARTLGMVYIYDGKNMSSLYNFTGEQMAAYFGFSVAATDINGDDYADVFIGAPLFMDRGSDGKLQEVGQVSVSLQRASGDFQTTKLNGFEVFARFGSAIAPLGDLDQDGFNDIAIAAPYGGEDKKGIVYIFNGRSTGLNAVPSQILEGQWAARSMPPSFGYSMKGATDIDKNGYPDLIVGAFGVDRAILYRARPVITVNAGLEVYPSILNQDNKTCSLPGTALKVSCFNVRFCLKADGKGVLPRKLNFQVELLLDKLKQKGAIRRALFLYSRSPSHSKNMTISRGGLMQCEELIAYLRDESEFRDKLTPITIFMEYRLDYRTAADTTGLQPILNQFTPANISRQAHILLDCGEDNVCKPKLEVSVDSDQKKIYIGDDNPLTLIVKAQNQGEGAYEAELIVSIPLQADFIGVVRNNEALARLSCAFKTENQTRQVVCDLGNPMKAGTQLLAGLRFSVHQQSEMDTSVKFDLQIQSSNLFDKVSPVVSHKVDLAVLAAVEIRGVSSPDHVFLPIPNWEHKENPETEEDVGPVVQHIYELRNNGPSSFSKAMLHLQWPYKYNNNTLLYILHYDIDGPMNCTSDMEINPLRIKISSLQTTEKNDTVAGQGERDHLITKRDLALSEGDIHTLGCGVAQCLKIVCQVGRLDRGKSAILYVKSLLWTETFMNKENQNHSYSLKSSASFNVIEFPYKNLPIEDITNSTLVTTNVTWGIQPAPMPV
Integrin αvβ3 (Homo sapiens), sequence (P05106 27-718, chain 2 of 2, further chain): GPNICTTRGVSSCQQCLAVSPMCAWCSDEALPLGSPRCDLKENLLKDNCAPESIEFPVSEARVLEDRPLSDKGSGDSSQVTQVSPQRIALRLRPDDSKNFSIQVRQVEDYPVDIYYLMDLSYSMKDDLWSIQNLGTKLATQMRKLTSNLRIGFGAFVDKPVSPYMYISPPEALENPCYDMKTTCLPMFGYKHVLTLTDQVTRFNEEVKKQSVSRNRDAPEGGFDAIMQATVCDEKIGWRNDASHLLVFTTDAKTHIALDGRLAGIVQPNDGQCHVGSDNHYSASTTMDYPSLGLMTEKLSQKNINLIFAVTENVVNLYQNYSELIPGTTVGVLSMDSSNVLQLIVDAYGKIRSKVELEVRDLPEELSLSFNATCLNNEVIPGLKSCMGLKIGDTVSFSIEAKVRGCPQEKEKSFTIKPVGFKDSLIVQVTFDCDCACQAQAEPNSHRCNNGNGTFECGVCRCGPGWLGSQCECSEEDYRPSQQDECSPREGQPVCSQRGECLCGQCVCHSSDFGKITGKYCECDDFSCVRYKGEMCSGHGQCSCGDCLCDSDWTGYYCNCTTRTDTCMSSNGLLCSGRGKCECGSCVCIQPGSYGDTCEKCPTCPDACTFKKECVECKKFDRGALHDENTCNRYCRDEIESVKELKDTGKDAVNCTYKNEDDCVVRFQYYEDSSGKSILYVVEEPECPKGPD
Integrin α5β1 (Homo sapiens), sequence (P08648 42-995, chain 1 of 2): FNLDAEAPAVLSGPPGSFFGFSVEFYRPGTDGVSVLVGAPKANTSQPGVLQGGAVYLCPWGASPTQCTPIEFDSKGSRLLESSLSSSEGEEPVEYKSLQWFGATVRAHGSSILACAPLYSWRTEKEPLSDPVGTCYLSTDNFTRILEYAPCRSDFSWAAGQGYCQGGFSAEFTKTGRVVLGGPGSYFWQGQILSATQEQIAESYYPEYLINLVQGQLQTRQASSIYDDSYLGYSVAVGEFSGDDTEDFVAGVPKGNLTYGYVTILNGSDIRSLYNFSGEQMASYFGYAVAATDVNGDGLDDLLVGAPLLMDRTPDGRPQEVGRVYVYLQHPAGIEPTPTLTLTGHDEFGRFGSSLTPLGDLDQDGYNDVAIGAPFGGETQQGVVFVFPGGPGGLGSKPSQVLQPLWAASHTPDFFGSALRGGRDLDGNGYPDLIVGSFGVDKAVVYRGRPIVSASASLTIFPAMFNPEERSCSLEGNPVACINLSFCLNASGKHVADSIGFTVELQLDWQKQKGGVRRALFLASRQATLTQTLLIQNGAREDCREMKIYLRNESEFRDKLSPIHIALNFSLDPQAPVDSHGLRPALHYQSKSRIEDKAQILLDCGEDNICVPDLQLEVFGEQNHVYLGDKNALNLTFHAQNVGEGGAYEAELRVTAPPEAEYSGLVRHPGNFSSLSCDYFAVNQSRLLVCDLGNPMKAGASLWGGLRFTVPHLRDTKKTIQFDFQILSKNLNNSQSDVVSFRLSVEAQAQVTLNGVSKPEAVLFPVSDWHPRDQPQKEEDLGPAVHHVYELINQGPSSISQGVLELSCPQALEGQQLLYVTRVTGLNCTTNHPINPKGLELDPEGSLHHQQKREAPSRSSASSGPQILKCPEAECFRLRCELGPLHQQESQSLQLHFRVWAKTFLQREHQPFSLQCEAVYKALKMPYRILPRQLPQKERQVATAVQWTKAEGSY
Integrin α5β1 (Homo sapiens), sequence (P05556 21-728, chain 2 of 2, further chain): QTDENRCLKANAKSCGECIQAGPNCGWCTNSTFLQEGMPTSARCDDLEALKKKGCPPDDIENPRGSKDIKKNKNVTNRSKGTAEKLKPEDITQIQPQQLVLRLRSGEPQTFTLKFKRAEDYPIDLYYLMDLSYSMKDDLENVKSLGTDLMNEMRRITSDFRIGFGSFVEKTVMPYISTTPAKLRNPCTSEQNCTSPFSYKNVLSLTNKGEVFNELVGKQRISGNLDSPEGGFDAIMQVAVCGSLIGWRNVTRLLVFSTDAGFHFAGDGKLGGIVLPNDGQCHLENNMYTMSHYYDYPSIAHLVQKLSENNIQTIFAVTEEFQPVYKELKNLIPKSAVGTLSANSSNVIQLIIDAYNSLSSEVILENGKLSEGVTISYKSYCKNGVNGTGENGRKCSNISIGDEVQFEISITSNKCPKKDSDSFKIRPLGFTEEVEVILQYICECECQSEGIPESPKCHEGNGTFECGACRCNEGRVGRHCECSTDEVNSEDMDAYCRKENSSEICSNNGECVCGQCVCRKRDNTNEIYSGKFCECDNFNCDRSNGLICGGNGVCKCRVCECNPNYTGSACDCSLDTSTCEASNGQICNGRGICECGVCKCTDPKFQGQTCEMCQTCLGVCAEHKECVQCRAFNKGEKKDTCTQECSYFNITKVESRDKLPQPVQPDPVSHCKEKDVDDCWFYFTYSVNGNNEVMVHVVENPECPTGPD
Endorepellin endorepellin, sequence (P98160 3684-4391): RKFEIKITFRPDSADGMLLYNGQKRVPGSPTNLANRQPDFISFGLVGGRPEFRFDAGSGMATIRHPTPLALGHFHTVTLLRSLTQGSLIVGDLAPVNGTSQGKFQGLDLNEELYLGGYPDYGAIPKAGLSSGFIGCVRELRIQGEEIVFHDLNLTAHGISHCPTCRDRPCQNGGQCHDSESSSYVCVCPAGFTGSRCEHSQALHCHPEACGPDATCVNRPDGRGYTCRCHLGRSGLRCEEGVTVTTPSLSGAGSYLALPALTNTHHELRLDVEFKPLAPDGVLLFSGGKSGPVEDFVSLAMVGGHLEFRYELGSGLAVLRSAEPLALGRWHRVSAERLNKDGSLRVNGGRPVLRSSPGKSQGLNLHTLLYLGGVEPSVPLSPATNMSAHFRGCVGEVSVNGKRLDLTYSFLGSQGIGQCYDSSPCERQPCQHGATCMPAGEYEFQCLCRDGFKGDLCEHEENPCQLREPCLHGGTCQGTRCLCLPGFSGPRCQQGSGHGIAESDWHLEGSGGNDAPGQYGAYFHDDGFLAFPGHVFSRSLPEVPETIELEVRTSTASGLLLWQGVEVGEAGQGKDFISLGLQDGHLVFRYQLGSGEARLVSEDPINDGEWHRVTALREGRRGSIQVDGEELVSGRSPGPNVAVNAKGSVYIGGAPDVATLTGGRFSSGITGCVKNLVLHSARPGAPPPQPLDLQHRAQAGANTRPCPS
Tetrastatin tetrastatin, sequence (P53420 1465-1690): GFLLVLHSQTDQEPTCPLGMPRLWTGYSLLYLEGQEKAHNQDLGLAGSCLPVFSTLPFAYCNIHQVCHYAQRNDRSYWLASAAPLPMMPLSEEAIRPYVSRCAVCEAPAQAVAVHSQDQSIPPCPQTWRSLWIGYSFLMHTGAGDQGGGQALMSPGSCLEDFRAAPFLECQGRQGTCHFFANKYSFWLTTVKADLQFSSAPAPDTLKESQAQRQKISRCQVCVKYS

A word on the pKd: it is the Kd on a negative log10 scale, so that one unit is a factor of ten. “Endorepellin endorepellin (from UniProt P98160)”: the pKd was 9.05 in data set [1] and 9.00 in data set [2].

As to “Endostatin endostatin (from UniProt P39060)”, the pKd is 7.89 in data set [3]; 6.01 and 6.35 in data set [4]; 6.30 and 5.92 in data set [5].

Turning to “Tetrastatin tetrastatin (from UniProt P53420)”, in data set [6], the negative-log Kd (pKd) is 6.83.
